From publication PMC4813479 (2015)
Non-standard residues stand in square brackets, D forms with d. No end group written: not given here.

B1: AGD(v) (D-valine in place of L-valine) (peptide)
peptide: AGD[dV]
B2: AGDV-OCH3 (O-methylated AGDV) (peptide)
peptide: AGDV-OMe
B3: AGDV-NH2 (amidated AGDV) (peptide)
peptide: AGDV-NH2

Molecular target: recombinant αIIbβ3 headpiece
Assay: FP

First: B1
Second: B2
The Kd of the first is 3.2-fold higher: 217 µM for the first, 67.6 µM for the second.

With B3 the Kd was 50.9 µM.
